PMC11606652

Target: Kluyveromyces marxianus GCN2 histidyl-tRNA synthetase-like (HRSL) domain, residues 996-1,511 (Kluyveromyces marxianus)
Assay: SEC

stoichiometry N: 2
Substance: Kluyveromyces marxianus GCN2 histidyl-tRNA synthetase-like (HRSL) domain, residues 996-1,511 (domain or fragment)
